Consider 28 sequences from the supplement of paper PMC9170038.

The data set relates to MS2 coat protein. The experiment in a line: apparent KD of MS2 coat protein; designed switch direction (-1 OFF switch, 1 ON switch): 1; higher = weaker reporter binding. The essentials:
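The reported apparent KD is a per-design median over clusters, from curve fits of normalised cluster fluorescence. Protein titrations used SNAP-549-labelled MS2 coat protein, doubled from 0.7 or 1.5 nM to 3 µM, in Tris-HCl pH 7.5 buffer with KCl, MgCl2, BSA, DTT, tRNA and Tween-20, with no input, 200 uM small-molecule ligand, or an oligonucleotide input. The RNA switches were transcribed on Illumina chips by stalled E. coli RNA polymerase.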

Setting [1] is: Eterna round: R95, input ligand: FMN 200 uM.
Setting [2] is: Eterna round: R95, input ligand: microRNA oligo, concentration not stated.
The mark [3] stands for this setting: Eterna round: R95, input ligand: none.
The mark [4] stands for this setting: input ligand: microRNA oligo, concentration not stated.

In the case of “CGUCCGGCCUGUGCUGGCCGGUUGCUUGUACAUGAGGAUCACCCAUGUUCUUGUGCUGGCUUUUUGCUCGUCUUGUG [salish99_mir208a_019] (puzzle: Sensor for hsa-mir-208a)”, the “apparent KD of MS2 coat protein” value was found to be 31.5 nM under setting [1], 19.2 nM under setting [2] and 37.8 nM under setting [3].

In the case of “AGUCCAGCAUGAGCUGGACAAAAGCAUGUACAUGAGGAUCACCCAUGUUCAUGUACAAGCUUUUUGCUCGUCUUAAA [Mat - hsa-mir-208a - Mod of JL - 45] (puzzle: Sensor for hsa-mir-208a)”, the “apparent KD of MS2 coat protein” value under setting [1] is 807 nM, the “apparent KD of MS2 coat protein” value under setting [2] is 17.5 nM and the “apparent KD of MS2 coat protein” value under setting [3] came out at 562 nM.

With “AUUGCUAGCGCAGGAUAUGAUGCGAAAAUUGCGUCAGAAGGGUGUAAUCUCUCAUUGCGGGAGGACAUGAGGAUCACCCAUGUC [SameState NG1 #84] (Eterna round: R96, puzzle: Same State NG 1)”, the “apparent KD of MS2 coat protein” value under setting [4] amounted to 123 nM.

Take “CAUCCCUCCACAGGAUAUCGACCGAUAAAACGGCGAGAAGGGUGGCCACAUGAGGAUCACCCAUGUGGAAUUGGAUGAGCUACA [Enlaed] (Eterna round: R96, puzzle: Same State NG 1)”: the “apparent KD of MS2 coat protein” value (input ligand: FMN 200 uM) came to 78.7 nM, the “apparent KD of MS2 coat protein” value under setting [4] was determined as 66.6 nM and the “apparent KD of MS2 coat protein” value (input ligand: none) was determined as 126 nM.

Regarding “AGUCCAGCGAAAGCUGGACAAAAGCAUGUACAUGAGGAUCACCCAUGUUCAUGUACAAGCUUUUUGCUCGUUUUAAA [JL mod - D95 - 15] (puzzle: Sensor for hsa-mir-208a)”, the “apparent KD of MS2 coat protein” value under setting [1] was determined as 590 nM, the “apparent KD of MS2 coat protein” value under setting [2] worked out at 13.5 nM and the “apparent KD of MS2 coat protein” value under setting [3] was 643 nM.

For the sequence “GCUCGAUGAGCGAUUUACAUGAGGAUCACCCAUGUACGUGGGCAGGAUAUUUACGUGCGGUGUGUAGAGAAGGGCCCAUCGAGC [SameState NG3 #71] (Eterna round: R96, puzzle: Same State NG 3)”, the “apparent KD of MS2 coat protein” value reads like this: (input ligand: FMN 200 uM) 62.5 nM; under setting [4], 206 nM; (input ligand: none) 332 nM.

Regarding “CCGUUCAAUAAACAUGAGGAUCACCCAUGUAAUAAUAAGGGUGAGGAUAUGCAUCUGAAACAGGUGCAGAAGGCAUAAGAGCGG [JL SSNG3 3.90] (Eterna round: R96, puzzle: Same State NG 3)”, the “apparent KD of MS2 coat protein” value was determined as 487 nM (input ligand: FMN 200 uM), 289 nM under setting [4] and 585 nM (input ligand: none).

As for “GUGGUGUAGAUACAGGAUAUGUUGCUCGUAACAUGAGGAUCACCCAUGUAUCUAUGAGAAUAAAUGCAGAAGGGUGCACACCACG [Mat - Same State 2 - Mod of UCT - D73] (puzzle: Same State 2)”, the “apparent KD of MS2 coat protein” value is 19.1 nM under setting [1], 352 nM under setting [2] and 311 nM under setting [3].

Regarding “ACCCAAAGUAUAUGGGAACAAGCUUUUUAACAUGAGGAUCACCCAUGUACUCGUCUUGUAAGCAGUCGAAAGACUGC [Sensor 100 - 1] (puzzle: Sensor for hsa-mir-208a)”, the “apparent KD of MS2 coat protein” value amounted to 312 nM under setting [1], 17.4 nM under setting [2] and 368 nM under setting [3].

Regarding “AAACCACAUGAGGAUCACCCAUGUGAUAAAAGCAUAGGAUAUCUGGAUGUGAGAGGCGGCAGAGAAGGAUGCACGC [Laoror] (puzzle: Same State 1)”, the “apparent KD of MS2 coat protein” value under setting [2] was 58.2 nM.

On to “GGAGCCGGCACCGAGGAUAUUCAUAUUAAAACAUGAGGAUCACCCAUGUAGGCCAGAAGGCCUUGGGAGAAGGCGGAUCGGCUCA [Xeonanis - 6] (puzzle: Same State 2)”, for which the “apparent KD of MS2 coat protein” value by setting is: under setting [1], 29.5 nM; under setting [2], 376 nM; under setting [3], 491 nM.

On to “CGGCGCUGUCGAGAGGAUAUGCGGUGAUGGACAUGAGGAUCACCCAUGUUAGCGAUAGCAUUACGGUAGAAGGCUCUACAGCUGC [Soteed Omei mod 4] (puzzle: Same State 2)”, for which the “apparent KD of MS2 coat protein” value under setting [2] came to 27.9 nM.

On to “UCUGAUGCCGUAGGAUAUCUAGGAUAUGGACGAGGAUCACCCGAGCAGCAUCAGCGCACCAGAGGAGAGAAGGACGCUUUGGAA [pwkr ssNG2 2F5 2FMN.21] (Eterna round: R96, puzzle: Same State NG 2)”, for which the “apparent KD of MS2 coat protein” value amounted to 438 nM (input ligand: FMN 200 uM), 274 nM under setting [4] and 1190 nM (input ligand: none).

For “UAGAGAGGAAGCGAGGAUAUCGUGUGAGGUACAUGAGGAUCACCCAUGUUUUAUGUUGAGAGAGGCGAGAAGGCGCAGGAGAAAA [JR_SS2_Sub087] (puzzle: Same State 2)”, the “apparent KD of MS2 coat protein” value amounted to 20 nM under setting [1], 37.3 nM under setting [2] and 26.2 nM under setting [3].

“GCUCUACAUGAGGAUCACCCAUGUUCGGACGCACGAGGAUAUGCAUGGGCGAAAGCUGGUGCAGAAGGCGUGGGAC [inDCorner] (puzzle: Same State 1)”: the “apparent KD of MS2 coat protein” value under setting [2] stood at 150 nM.

Take “UGGUAACAUGAGGAUCACCCAUGUCAAAUGAAUCGAGGAUAUGGGAACUAACAACACAAACUAGAAGGCGAACUUG [Altered State 1-9 - Jieux - Same State 1] (puzzle: Same State 1)”: the “apparent KD of MS2 coat protein” value runs as follows: under setting [1], 32.6 nM; under setting [2], 39.6 nM; under setting [3], 91.5 nM.

Turning to “UUUAGUUGCGGGCAGGAUAUGUAUUAAUAUACAUGAGGAUCACCCAUGUGAGAUCGAAUAGAUCUACAGAAGGGCCAAUCGCGAC [Laonerce - 25] (puzzle: Same State 2)”, the “apparent KD of MS2 coat protein” value under setting [1] was 19.8 nM, the “apparent KD of MS2 coat protein” value under setting [2] was determined as 133 nM and the “apparent KD of MS2 coat protein” value under setting [3] was 188 nM.

Consider “UUAUAACAUGAGGAUCACCCAUGUCAUCUAAGUCGAGGAUAUGGGCAAAUAUAAUAAGAACCAGAAGGCGAAUAUU [Mat - Same State 1 - Mod of UCT - D33] (puzzle: Same State 1)”, for which the “apparent KD of MS2 coat protein” value was found to be 141 nM under setting [1], 14.2 nM under setting [2] and 49.9 nM under setting [3].

“GUAGCAUACCGAGGAUAUUCAUAUAAUAAAUACAUGAGGAUCACCCAUGUAAGGCGAAAGCCUUGGGAGAAGGCGGAAUGCUAC [Xeonanis - 20 Mod59] (Eterna round: R96, puzzle: Same State NG 2)”: the “apparent KD of MS2 coat protein” value is 12.6 nM (input ligand: FMN 200 uM), 31.9 nM under setting [4] and 36.3 nM (input ligand: none).

Consider “AGAUCAUGACGAGGAUAUGGUACAUGAGGAUCACCCAUGUAUGUACCAUAACGCGUACGACGAAACCAGAAGGCGUCGUGAUCA [Mat - Same State NG 2 - JL mod - D41] (Eterna round: R96, puzzle: Same State NG 2)”, for which the “apparent KD of MS2 coat protein” value runs as follows: (input ligand: FMN 200 uM) 9.06 nM; under setting [4], 12.2 nM; (input ligand: none) 20.7 nM.

Turning to “AUGGUGCAGGUACAGGAUAUGUUGCUCGUAACAUGAGGAUCACCCAUGUACCUAUGAGAUUAAAUGCAGAAGGGUGCACACCAAA [Mat - Same State 2 - Mod of UCT - D90] (puzzle: Same State 2)”, the “apparent KD of MS2 coat protein” value under setting [1] was determined as 39.7 nM, the “apparent KD of MS2 coat protein” value under setting [2] worked out at 507 nM and the “apparent KD of MS2 coat protein” value under setting [3] was 707 nM.

In the case of “GGGAGACAUGAGGAUCACCCAUGUGAGAAGAGGCGAGGAUAUCGAAAAAAAAAAAAAAAACGAGAAGGCGCGAGAU [salish99-SS1-004] (Eterna round: R96, puzzle: Same State 1)”, the “apparent KD of MS2 coat protein” value reads like this: (input ligand: FMN 200 uM) 43.5 nM; under setting [4], 133 nM; (input ligand: none) 115 nM.

Consider “AGCACUUCAGAAGGAUAUGAGAUGCUAAGCAUCUUAGAAGGUCUGCCGUAAAGAAACGUCCACAUGAGGAUCACCCAUGUUGCA [Eternabot solution 28] (Eterna round: R96, puzzle: Same State NG 1)”, for which the “apparent KD of MS2 coat protein” value was 20.9 nM (input ligand: FMN 200 uM), 21.9 nM under setting [4] and 26 nM (input ligand: none).

In the case of “UUUAGUUGCGCGCAGGAUAUGUAUUAAUAUACAUGAGGAUCACCCAUGUGAGACCAAAUAGGUCUGCAGAAGGGCGAAUCGCGAC [Laonerce - 28] (puzzle: Same State 2)”, the “apparent KD of MS2 coat protein” value runs as follows: under setting [1], 45.4 nM; under setting [2], 139 nM; under setting [3], 199 nM.

Turning to “GUCCGUAUCACAGGAUAUCCUAGUCAUGAUCUAGGAGAAGGGUGGCCACAUGAGGAUCACCCAUGUGAAGUGCCAGAGGCACGA [MOD2 Xexeraed] (Eterna round: R96, puzzle: Same State NG 1)”, the “apparent KD of MS2 coat protein” value is 687 nM (input ligand: FMN 200 uM), 64.8 nM under setting [4] and 149 nM (input ligand: none).

As to “AGGCUCAGAGCAGGAUAUAUGUGGUCACAUGAGGAUCACCCAUGUCUCGAGCUUCGGCUCGAGGCAUAGAAGGGCUCUGAGCCA [SSNG2/5-B1] (Eterna round: R96, puzzle: Same State NG 2)”, the “apparent KD of MS2 coat protein” value by setting is: (input ligand: FMN 200 uM) 963 nM; under setting [4], 22.9 nM; (input ligand: none) 53.9 nM.

As for “GUAACAUGACGAGGAUAUGGAACAUGAGGAUCACCCAUGUAUGUUCCAUAACGCGAAUAAAGAAUCCAGAAGGCGUCGUGAAAU [Mat - Same State NG 2 - JL mod - D33] (Eterna round: R96, puzzle: Same State NG 2)”, the “apparent KD of MS2 coat protein” value was 22.1 nM (input ligand: FMN 200 uM), 118 nM under setting [4] and 120 nM (input ligand: none).

With “GCUCUACAUGAGGAUCACCCAUGUCCGAACGCGCGAGGAUAUGCAUGGGCGAAAGCUGGUGCAGAAGGCGUGGGAC [2theCorner] (puzzle: Same State 1)”, the “apparent KD of MS2 coat protein” value by setting is: under setting [1], 315 nM; under setting [2], 202 nM; under setting [3], 358 nM.
